Data from US20250277048A1.

Molecular target: human CD40 (hCD40) expressed on cells (human) (UniProt P25942)
Test: cell-based or functional assay

Sequence of human CD40 (hCD40) expressed on cells (human) (P25942 21-277): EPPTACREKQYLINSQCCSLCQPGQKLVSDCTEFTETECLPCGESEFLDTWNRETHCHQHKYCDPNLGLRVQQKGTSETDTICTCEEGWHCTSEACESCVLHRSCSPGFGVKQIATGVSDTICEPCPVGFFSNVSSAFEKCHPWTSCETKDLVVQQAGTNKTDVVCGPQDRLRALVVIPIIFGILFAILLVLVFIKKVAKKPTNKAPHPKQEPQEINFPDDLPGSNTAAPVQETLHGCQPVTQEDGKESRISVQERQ

Substance: human CD40L (soluble, used in the cell assays) (from UniProt P29965 113-261) (ligand)
- EC50 of activation, Raji/NFkB-luc: 0.691 nM
- EC50 of activation, Ramos.2G6.4C10/NFkB-luc: 0.436 nM
- EC50 of activation, THP-1/NFkB-luc: 1.47 nM
